In patent US20110135573A1 (DYAX, published 2011):
Changes are numbered by the printed parent chain.

How the values were obtained:
MMP-9 (PMA-activated) = MMP-9 (PMA-activated) (Homo sapiens (Human), UniProt P14780 107-707, Biotinylated for the phage selection; the biotin sites are not stated and the letters do not carry them.); test: apparent KD; method not stated
[1] = target: T1, human TIMP-1 (R&D, 970-TM) (human, UniProt P01033 24-207); test: SPR (Biacore 3000), antibody amine-coupled (direct capture)
T1 construct: also called huTIMP-1; h-TIMP-1
Experimental: (§1) Experiments were performed at 25° C. with the help of a Biacore 3000 instrument. The MMP-9 binding protein (M0166F10) and the M0237-D02 antibody were coated to a CM5 chip either via standard amine coupling or using an anti-Fc antibody surface. Then either the active, human MMP-9 catalytic domain (BIOMOL, SE-244), the human pro-MMP-9 (R&D, 911-MP), the human TIMP-1 (R&D, 970-TM) or a h-MMP-9/h-TIMP-1 complex were flowed over the antibody surfaces, and binding was recorded.
(§2) It was shown that the human MMP-9 catalytic domain binds to M0166-F10, whether this antibody is directly captured via amine coupling or captured with an anti-Fc antibody surface.

h-MMP-9/h-TIMP-1 complex = target: T2, h-MMP-9/h-TIMP-1 complex (human, UniProt P14780 107-457; P01033 24-207, limits assumed); test: as above
T2 construct: Preformed non-covalent complex flowed over the antibody surfaces; also called huTIMP-1/cat-huMMP-9; h-TIMP-1/h-MMP-9 complex
Experimental: as §1, §2

[2] = target: T3, human pro-MMP-9 (R&D, 911-MP) (human, UniProt P14780 20-707); test: as above
T3 construct: Pro-enzyme; also called Pro-huMMP-9
Experimental: as §1, §2

[3] = target: MMP-16 (Calbiochem #475939) (UniProt P51512 120-292, limits assumed); test: cell-based or functional assay
MMP-7 (Biomol SE-181) = target: T4, MMP-7 (Biomol SE-181) (UniProt P09237 95-267); test: cell-based or functional assay
T4 sequence (looked up): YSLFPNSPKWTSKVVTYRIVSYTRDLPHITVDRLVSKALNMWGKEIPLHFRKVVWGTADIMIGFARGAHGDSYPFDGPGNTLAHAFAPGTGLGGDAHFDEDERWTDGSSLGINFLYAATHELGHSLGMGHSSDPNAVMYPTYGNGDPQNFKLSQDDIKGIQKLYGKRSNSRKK

MMP-8 (Biomol SE-255) = MMP-8 (Biomol SE-255) (UniProt P22894 100-262, limits assumed); test: cell-based or functional assay
MMP-12 (Biomol SE-138) = MMP-12 (Biomol SE-138) (UniProt P39900 106-263, limits assumed); test: cell-based or functional assay
[4] = target: MMP-3 (R&D Systems #513-MP) (UniProt P08254 18-477, limits assumed); test: cell-based or functional assay
[5] = target: MMP-15 (Calbiochem #475938) (UniProt P51511 132-304, limits assumed); test: cell-based or functional assay
MMP-14 (Biomol SE-259) = MMP-14 (Biomol SE-259) (UniProt P50281 112-284, limits assumed); test: cell-based or functional assay
TACE (R&D Systems) = TACE (R&D Systems) (UniProt P78536 215-671, limits assumed); test: cell-based or functional assay
MMP-13 (Biomol SE-246) = MMP-13 (Biomol SE-246) (UniProt P45452 104-274); test: cell-based or functional assay
MMP-1 (Biomol SE-180) = target: T5, MMP-1 (Biomol SE-180) (UniProt P03956 100-269, limits assumed); test: cell-based or functional assay
T5 sequence (looked up): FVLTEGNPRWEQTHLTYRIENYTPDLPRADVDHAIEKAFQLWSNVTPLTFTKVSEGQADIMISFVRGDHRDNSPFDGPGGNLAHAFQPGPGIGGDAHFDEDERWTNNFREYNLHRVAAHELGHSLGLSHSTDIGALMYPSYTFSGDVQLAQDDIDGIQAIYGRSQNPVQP

MMP-10 (Biomol SE-329) = MMP-10 (Biomol SE-329) (UniProt P09238 99-265, limits assumed); test: cell-based or functional assay
[6] = target: T6, Human MMP-9 catalytic domain (BIOMOL, SE-244) (human, UniProt P14780 107-457, limits assumed); test: Ki,app, enzyme inhibition assay (fluorogenic peptide substrate), small-scale sFab
T6 construct: domain: catalytic domain; also called Cat-huMMP-9; cat-huMMP-9

[7] = target: T7, Mouse MMP-9 (R&D, 909-MM), APMA-activated (mouse, UniProt P41245 108-730, limits assumed); test: Ki,app, enzyme inhibition assay (fluorogenic peptide substrate), medium-scale sFab
T7 construct: also called mMMP-9; mouse MMP-9 (R&D Systems #909-MM-010)

[8] = target: T6, Human MMP-9 catalytic domain (BIOMOL, …); test: as above
[9] = target: T8, human MMP-2 (Biomol #SE-237) (human, UniProt P08253 110-452, limits assumed); test: as above
T8 construct: also called hMMP-2

[10] = target: T9, MMP-26 (Dyax prep #020209) (UniProt Q9NRE1 90-261, limits assumed); test: cell-based or functional assay
T9 sequence (looked up): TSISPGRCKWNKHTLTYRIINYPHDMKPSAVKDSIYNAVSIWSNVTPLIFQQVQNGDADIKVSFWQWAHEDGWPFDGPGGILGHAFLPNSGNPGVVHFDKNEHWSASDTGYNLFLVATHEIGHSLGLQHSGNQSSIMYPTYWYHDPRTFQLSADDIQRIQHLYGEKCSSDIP

[11] = target: T7, Mouse MMP-9 (R&D, 909-MM), …; test: Ki,app, enzyme inhibition assay (fluorogenic peptide substrate), IgG
[12] = target: T6, Human MMP-9 catalytic domain (BIOMOL, …); test: as above
[13] = target: T8, human MMP-2 (Biomol #SE-237); test: as above

TACE (R&D Systems), sequence (P78536 215-671 limits assumed): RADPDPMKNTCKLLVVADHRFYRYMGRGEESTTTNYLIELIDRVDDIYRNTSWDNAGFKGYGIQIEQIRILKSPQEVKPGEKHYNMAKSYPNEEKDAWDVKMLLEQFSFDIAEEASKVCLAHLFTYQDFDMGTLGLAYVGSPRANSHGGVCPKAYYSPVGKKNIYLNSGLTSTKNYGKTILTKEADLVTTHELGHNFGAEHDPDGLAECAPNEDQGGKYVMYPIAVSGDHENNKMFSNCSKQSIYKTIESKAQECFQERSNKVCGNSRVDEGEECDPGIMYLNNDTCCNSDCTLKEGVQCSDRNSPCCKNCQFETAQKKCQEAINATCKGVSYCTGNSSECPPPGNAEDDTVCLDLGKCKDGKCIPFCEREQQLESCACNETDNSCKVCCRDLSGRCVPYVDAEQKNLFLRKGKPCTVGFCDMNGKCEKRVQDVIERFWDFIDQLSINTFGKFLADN
MMP-8 (Biomol SE-255), sequence (P22894 100-262 limits assumed): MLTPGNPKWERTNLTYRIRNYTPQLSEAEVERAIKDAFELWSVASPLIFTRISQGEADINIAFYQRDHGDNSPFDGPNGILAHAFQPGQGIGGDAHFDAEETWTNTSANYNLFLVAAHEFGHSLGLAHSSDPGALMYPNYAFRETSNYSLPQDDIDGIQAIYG
T6 sequence (P14780 107-457 limits assumed): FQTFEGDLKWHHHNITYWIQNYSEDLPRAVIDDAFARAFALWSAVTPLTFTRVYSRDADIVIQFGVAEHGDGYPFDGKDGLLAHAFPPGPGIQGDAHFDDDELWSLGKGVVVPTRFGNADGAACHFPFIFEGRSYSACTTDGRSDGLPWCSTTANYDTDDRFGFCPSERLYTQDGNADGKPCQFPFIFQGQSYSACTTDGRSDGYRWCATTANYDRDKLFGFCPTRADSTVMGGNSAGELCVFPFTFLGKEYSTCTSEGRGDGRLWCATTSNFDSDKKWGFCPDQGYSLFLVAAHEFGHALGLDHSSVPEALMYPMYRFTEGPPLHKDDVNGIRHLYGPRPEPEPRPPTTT
MMP-15 (Calbiochem #475938), sequence (P51511 132-304 limits assumed): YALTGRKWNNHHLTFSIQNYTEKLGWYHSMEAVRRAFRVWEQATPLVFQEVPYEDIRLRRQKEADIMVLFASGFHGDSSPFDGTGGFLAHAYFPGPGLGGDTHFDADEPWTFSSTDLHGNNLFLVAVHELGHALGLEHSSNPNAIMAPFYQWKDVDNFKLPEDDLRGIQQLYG
T8 sequence (P08253 110-452 limits assumed): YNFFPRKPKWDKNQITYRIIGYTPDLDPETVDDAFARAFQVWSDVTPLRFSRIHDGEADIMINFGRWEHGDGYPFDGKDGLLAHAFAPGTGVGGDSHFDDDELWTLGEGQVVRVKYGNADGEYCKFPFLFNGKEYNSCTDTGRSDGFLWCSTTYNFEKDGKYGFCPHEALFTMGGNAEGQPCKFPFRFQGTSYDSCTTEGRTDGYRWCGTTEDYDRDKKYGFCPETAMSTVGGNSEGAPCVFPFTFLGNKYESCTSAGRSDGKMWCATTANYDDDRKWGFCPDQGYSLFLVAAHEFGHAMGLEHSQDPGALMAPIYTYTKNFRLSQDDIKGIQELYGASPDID
MMP-12 (Biomol SE-138), sequence (P39900 106-263 limits assumed): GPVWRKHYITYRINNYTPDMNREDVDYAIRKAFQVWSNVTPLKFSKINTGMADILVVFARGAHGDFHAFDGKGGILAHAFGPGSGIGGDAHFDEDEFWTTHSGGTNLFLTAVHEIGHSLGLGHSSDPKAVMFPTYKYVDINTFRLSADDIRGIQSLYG
T7 sequence (P41245 108-730 limits assumed): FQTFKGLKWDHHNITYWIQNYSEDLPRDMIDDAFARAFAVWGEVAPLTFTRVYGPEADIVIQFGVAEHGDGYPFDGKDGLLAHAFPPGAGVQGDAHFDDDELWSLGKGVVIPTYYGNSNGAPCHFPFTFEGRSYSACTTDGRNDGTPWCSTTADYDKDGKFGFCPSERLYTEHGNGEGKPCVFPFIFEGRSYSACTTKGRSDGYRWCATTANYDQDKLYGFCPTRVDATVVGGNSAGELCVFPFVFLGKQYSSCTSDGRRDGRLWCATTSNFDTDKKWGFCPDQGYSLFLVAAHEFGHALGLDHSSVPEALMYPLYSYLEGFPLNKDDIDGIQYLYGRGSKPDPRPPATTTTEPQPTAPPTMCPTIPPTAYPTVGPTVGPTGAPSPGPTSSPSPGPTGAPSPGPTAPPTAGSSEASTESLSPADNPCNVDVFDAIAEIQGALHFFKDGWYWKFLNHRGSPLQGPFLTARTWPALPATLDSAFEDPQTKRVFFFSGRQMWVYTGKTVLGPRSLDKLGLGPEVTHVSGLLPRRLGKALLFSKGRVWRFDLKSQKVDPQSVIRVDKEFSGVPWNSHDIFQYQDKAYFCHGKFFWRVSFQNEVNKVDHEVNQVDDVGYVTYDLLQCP
MMP-10 (Biomol SE-329), sequence (P09238 99-265 limits assumed): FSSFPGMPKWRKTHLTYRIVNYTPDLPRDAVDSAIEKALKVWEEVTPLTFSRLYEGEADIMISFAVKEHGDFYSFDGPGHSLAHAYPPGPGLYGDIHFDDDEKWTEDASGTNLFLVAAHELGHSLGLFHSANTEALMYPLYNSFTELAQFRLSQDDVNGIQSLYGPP
MMP-16 (Calbiochem #475939), sequence (P51512 120-292 limits assumed): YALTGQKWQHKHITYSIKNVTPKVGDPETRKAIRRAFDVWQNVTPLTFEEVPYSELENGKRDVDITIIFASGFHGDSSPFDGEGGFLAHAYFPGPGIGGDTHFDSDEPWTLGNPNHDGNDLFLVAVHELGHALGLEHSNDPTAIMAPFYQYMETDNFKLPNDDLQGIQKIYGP
MMP-3 (R&D Systems #513-MP), sequence (P08254 18-477 limits assumed): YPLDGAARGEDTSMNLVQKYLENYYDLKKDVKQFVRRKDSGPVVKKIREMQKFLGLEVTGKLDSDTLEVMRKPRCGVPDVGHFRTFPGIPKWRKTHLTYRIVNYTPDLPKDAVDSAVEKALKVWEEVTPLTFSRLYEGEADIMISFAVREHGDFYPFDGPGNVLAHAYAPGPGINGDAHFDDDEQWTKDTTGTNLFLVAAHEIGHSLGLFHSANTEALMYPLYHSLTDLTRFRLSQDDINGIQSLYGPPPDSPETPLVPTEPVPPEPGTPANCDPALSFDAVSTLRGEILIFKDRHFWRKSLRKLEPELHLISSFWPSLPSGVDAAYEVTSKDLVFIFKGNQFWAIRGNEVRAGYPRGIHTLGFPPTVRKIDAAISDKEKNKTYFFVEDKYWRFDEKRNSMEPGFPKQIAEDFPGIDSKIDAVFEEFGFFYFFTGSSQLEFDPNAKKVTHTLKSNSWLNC
MMP-9 (PMA-activated), sequence (P14780 107-707 limits assumed, form in doubt): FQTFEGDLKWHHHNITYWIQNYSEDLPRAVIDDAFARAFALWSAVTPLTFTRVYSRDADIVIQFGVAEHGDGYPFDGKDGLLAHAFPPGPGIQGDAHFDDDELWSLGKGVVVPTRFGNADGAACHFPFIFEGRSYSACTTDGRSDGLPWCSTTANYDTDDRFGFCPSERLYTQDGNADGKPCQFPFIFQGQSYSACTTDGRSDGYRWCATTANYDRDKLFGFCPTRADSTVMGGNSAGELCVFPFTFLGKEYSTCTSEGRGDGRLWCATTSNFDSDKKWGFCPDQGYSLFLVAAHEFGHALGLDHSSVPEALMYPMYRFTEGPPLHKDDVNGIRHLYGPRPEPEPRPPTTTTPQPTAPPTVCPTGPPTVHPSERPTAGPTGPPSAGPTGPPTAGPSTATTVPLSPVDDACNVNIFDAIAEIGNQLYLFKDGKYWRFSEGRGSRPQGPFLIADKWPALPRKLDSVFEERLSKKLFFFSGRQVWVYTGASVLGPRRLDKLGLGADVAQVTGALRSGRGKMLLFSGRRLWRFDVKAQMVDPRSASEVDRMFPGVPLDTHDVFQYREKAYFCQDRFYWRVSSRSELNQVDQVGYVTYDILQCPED
T2 sequence (P14780 107-457 limits assumed, chain 1 of 2): as the sequence (P14780 107-457 limits assumed) above
T2 sequence (P01033 24-207 limits assumed, chain 2 of 2): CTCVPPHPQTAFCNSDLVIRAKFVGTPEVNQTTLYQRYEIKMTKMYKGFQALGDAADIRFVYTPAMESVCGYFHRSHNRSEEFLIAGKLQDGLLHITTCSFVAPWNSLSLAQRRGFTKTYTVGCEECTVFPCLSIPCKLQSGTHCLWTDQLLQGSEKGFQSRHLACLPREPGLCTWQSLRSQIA
T3 sequence (P14780 20-707): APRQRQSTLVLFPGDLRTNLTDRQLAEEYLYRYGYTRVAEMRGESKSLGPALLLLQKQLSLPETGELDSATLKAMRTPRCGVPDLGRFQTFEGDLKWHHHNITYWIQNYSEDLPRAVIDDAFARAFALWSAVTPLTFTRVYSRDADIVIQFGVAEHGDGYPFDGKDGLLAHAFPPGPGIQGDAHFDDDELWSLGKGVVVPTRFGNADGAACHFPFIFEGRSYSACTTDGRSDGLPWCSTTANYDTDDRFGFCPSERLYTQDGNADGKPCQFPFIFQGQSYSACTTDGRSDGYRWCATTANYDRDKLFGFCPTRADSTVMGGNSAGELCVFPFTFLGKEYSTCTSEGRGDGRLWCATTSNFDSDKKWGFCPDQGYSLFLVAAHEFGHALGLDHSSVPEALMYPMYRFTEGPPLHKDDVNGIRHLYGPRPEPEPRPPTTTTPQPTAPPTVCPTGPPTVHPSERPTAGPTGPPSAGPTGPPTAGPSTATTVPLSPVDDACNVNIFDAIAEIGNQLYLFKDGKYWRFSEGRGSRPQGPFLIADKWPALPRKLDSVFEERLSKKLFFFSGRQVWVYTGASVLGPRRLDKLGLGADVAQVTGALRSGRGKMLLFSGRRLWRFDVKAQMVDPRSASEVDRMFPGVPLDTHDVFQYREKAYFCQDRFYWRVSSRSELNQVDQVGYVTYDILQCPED
T1 sequence (P01033 24-207 limits assumed): as the sequence (P01033 24-207 limits assumed, chain 2 of 2) above

B1: M0076-D03 (Fab, V domains shown)
VH: EVQLLESGGGLVQPGGSLRLSCAASGFTFSLYRMNWVRQAPGKGLEWVSYIGSSGGATAYADSVKGRFTISRDNSKNTLYLQMNSLRAEDTAVYYCARGAWYLDSWGQGTLVTVSS
VL: DIQMTQSPSSLSASVGDRVTITCRASQGIRNDLDWYQQKPGTAPKRLIYSASNLQSGVPSRFSGSGSGTEFTLTISNLQPEDLATYFCLQHNSFPLTFGQGTKVEIK
notes: variable domains only
MMP-9 (PMA-activated)
  Kd: 5.9 nM

B2: 539A-M0166-F10 (antibody, V domains shown)
VH: EVQLLESGGGLVQPGGSLRLSCAASGFTFSPYLMNWVRQAPGKGLEWVSSIYSSGGGTGYADSVKGRFTISRDNSKNTLYLQMNSLRAEDTAVYYCARIYHSSSGPFYGMDVWGQGTTVTVSS
VL: QSELTQPPSASAAPGQRVTISCSGSSSNIGSNTVTWYQKLPGTAPKLLIYNNYERPSGVPARFSGSKSGTSASLAISGLQSEDEADYYCATWDDSLIANYVFGSGTKVTVLG
notes: also called DL15
[1]
  binding result: no binding
h-MMP-9/h-TIMP-1 complex
  binding result: no binding
[2]
  binding result: no binding

B3: M0279-A03 (Fab, V domains shown)
VH: EVQLLESGGGLVQPGGSLRLSCAASGFTFSQYPMWWVRQAPGKGLEWVSYIVPSGGRTYYADSVKGRFTISRDNSKNTLYLQMNSLRAEDTAVYYCAKDRAYGDYVGWNGFDYWGQGTLVTVSS
VL: DIQMTQSPATLSVSPGERVTLSCKASHSISRNLAWYQQKPGQAPRLLIFGASTRATGIPARFSGSGSGTEFTLTISSLEAEDFAVYYCQQRRNWPVTFGPGTKLDFK
notes: sFab; variable domains only; also called M279-A03; M279-A03 sFab
[3]
  IC50 (enzyme inhibition): > 500 nM
MMP-7 (Biomol SE-181)
  IC50 (enzyme inhibition): > 500 nM
MMP-8 (Biomol SE-255)
  IC50 (enzyme inhibition): > 500 nM
MMP-12 (Biomol SE-138)
  IC50 (enzyme inhibition): > 500 nM
[4]
  IC50 (enzyme inhibition): > 500 nM
[5]
  IC50 (enzyme inhibition): > 500 nM
MMP-14 (Biomol SE-259)
  IC50 (enzyme inhibition): > 500 nM
TACE (R&D Systems)
  IC50 (enzyme inhibition): > 500 nM
MMP-13 (Biomol SE-246)
  IC50 (enzyme inhibition): > 500 nM
MMP-1 (Biomol SE-180)
  IC50 (enzyme inhibition): > 500 nM
MMP-10 (Biomol SE-329)
  IC50 (enzyme inhibition): > 500 nM
[6]
  Ki: 2.2 nM
[7]
  Ki: 24 nM
[8]
  Ki: 1.6 nM
[9]
  Ki: > 430 nM

B4: M0279-B02 (Fab, V domains shown)
VH: B3 VH
VL: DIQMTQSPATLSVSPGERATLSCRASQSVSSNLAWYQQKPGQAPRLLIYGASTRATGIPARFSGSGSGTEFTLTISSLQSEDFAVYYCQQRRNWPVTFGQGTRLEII
notes: sFab; variable domains only; also called M279-B02
[3]
  IC50 (enzyme inhibition): > 1000 nM
MMP-7 (Biomol SE-181)
  IC50 (enzyme inhibition): > 1000 nM
MMP-8 (Biomol SE-255)
  IC50 (enzyme inhibition): > 1000 nM
MMP-12 (Biomol SE-138)
  IC50 (enzyme inhibition): > 1000 nM
[4]
  IC50 (enzyme inhibition): > 1000 nM
[5]
  IC50 (enzyme inhibition): > 1000 nM
MMP-14 (Biomol SE-259)
  IC50 (enzyme inhibition): > 1000 nM
[10]
  IC50 (enzyme inhibition): > 1000 nM
TACE (R&D Systems)
  IC50 (enzyme inhibition): > 1000 nM
MMP-13 (Biomol SE-246)
  IC50 (enzyme inhibition): > 1000 nM
MMP-1 (Biomol SE-180)
  IC50 (enzyme inhibition): > 1000 nM
MMP-10 (Biomol SE-329)
  IC50 (enzyme inhibition): > 1000 nM
[6]
  Ki: 2.6 nM
[7]
  Ki: 64 nM
[8]
  Ki: 6.5 nM
[9]
  Ki: > 1000 nM

B5: X0106-A01 (antibody, V domains shown)
VH: B3 VH with Q31H, P33D, Y50V, V52Y, P53S, R57P, Y59F
VL: EIVLTQSPATLSLSPGERATLSCRASQSISSFLAWYQQKPGQAPRLLIYDASYRATGIPARFSGSGSGTDFTLTISSLEPEDFAVYYCQQRGNWPITFGQGTRLEIK
notes: Produced and tested as IgG1; germlined, optimized version of M0256-D11; also called X106-A01; X106-A01 IgG
[3]
  IC50 (enzyme inhibition): > 1000 nM
MMP-7 (Biomol SE-181)
  IC50 (enzyme inhibition): 900 nM
MMP-8 (Biomol SE-255)
  IC50 (enzyme inhibition): > 1000 nM
MMP-12 (Biomol SE-138)
  IC50 (enzyme inhibition): > 1000 nM
[4]
  IC50 (enzyme inhibition): > 1000 nM
[5]
  IC50 (enzyme inhibition): > 1000 nM
MMP-14 (Biomol SE-259)
  IC50 (enzyme inhibition): > 1000 nM
[10]
  IC50 (enzyme inhibition): 12 nM
TACE (R&D Systems)
  IC50 (enzyme inhibition): > 1000 nM
MMP-13 (Biomol SE-246)
  IC50 (enzyme inhibition): > 1000 nM
MMP-1 (Biomol SE-180)
  IC50 (enzyme inhibition): > 1000 nM
MMP-10 (Biomol SE-329)
  IC50 (enzyme inhibition): > 1000 nM
[11]
  Ki: 0.25 nM
[12]
  Ki: 0.1 nM
[13]
  Ki: 0.34 nM

B6: M0288-C08 (Fab, V domains shown)
VH: B3 VH
VL: DIQMTQSPGTLSVSPGERVTLSCRASQSVSSYLAWYQQKPGQAPRLLIYGASTRVTGIPARFSGSGSGTEFTLTISSLQSEDFAVYYCQQRSSWPITFGQGTRLEIK
notes: sFab; variable domains only; also called M288-C08
[6]
  Ki: 2 nM
[7]
  Ki: 13 nM
[8]
  Ki: 1.8 nM
[9]
  Ki: > 1000 nM

B7: M0078-G07 (Fab, V domains shown)
VH: EVQLLESGGGLVQPGGSLRLSCAASGFTFSSYTMEWVRQAPGKGLEWVSWISPSGGYTFYADSVKGRFTISRDNSKNTLYLQMNSLRAEDTALYYCARGYSYGSIDLWGRGTLVTVSS
VL: DIQMTQSPGTLSVSPGERATLSCRASQSVSSDLAWYQHKPGQAPRLLIYGVSTKATGVPARFSGSGSGTEFTLTISSLQSEDLAVYYCQQYHNWPPLTFGGGTKVEIK
notes: variable domains only; also called Fab M0078-G07
MMP-9 (PMA-activated)
  Kd: 3.1 nM
